The record followed here is article PMC7662524, “Determination and Dissection of DNA-Binding Specificity for the Thermus thermophilus HB8 Transcriptional Regulator TTHB099”.

The target of data set [1] is T1, TTHB099 (Thermus thermophilus HB8, UniProt Q53W63 1-195).
T1 sequence: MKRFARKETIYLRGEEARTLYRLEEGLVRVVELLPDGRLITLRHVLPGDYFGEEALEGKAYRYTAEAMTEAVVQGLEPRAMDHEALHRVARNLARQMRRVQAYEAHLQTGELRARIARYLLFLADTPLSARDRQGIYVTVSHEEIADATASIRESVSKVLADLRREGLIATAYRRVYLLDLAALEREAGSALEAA
Kind of data set: BLI; Buffer, salt, pH and temperature not given (as previously described); BLI 17, 50, 150, 450 nM TTHB099 on streptavidin sensors; EMSA 0-42.2 nM TTHB099. To be noted: protein: recombinant; label: 5' biotin. On the technique in general: In BLI a coated tip is dipped into the sample, and binding shifts an interference pattern.

Data set [2] deals with T1, TTHB099. The experiment in a line: BLI; up to 450 nM TTHB099; Buffer, salt, pH and temperature not given (as previously described); BLI 17, 50, 150, 450 nM TTHB099 on streptavidin sensors; EMSA 0-42.2 nM TTHB099. To be noted: protein: recombinant; label: 5' biotin.

Changes are numbered by the printed parent chain.

Broadly, the Kd is the equilibrium constant for the complex coming apart.

B1: TTHA1833 site (dsDNA)
DNA 1: AGGAATTCGTGCAGAGGTGAATTGTAGGCCAGGCCACGTTACCATCCCTCCAGAAGCTTG
DNA 2: CAAGCTTCTGGAGGGATGGTAACGTGGCCTGGCCTACAATTCACCTCTGCACGAATTCCT
In the case of B1, the Kd with TTHB099 [1] turned out to be 3.05 nM.

B2: ST2_099 m7 (dsDNA)
DNA 1: AGGAATTCGTGCAGAGGTGAATTGTATTTTAGAATACATTACCATCCCTCCAGAAGCTTG
DNA 2: CAAGCTTCTGGAGGGATGGTAATGTATTCTAAAATACAATTCACCTCTGCACGAATTCCT
Consider B2, for which the Kd with TTHB099 [1] worked out at 5.82 nM.

B3: ST2_099 m2 (dsDNA)
DNA 1: B2 DNA 1 with G24T, T29C
DNA 2: B2 DNA 2 with A32G, C37A
Take B3: in the data set with TTHB099 [1], the Kd was found to be 33.6 nM.

B4: ST2_099 m4 (dsDNA)
DNA 1: B2 DNA 1 with A26C, T29C
DNA 2: B2 DNA 2 with A32G, T35G
Regarding B4, in the data set with TTHB099 [1], the Kd was determined as 9.56 nM.

B5: TTHA1626/27 site (dsDNA)
DNA 1: B1 DNA 1 with T23G, G27T, C29G, C30G, G32A, C35T, G38A
DNA 2: B1 DNA 2 with C23T, G26A, C29T, G31C, G32C, C34A, A38C
For the molecule B5, the Kd with TTHB099 [1] came to 102 nM.

B6: TTHA0080/81 site (dsDNA)
DNA 1: B2 DNA 1 with A26G, A33T, A34T, A38T
DNA 2: B2 DNA 2 with T23A, T27A, T28A, T35C
For B6, in the data set with TTHB099 [1], the Kd turned out to be 93.2 nM.

B7: ST2_099 m5 (dsDNA)
DNA 1: B2 DNA 1 with T27C, T29C
DNA 2: B2 DNA 2 with A32G, A34G
As to B7, the Kd in the data set with TTHB099 [1] was 4.86 nM.

B8: TTHA0374 site (dsDNA)
DNA 1: B2 DNA 1 with T23A, A26G, T27A, T29G, G32A, A34C, C37A
DNA 2: B2 DNA 2 with G24T, T27G, C29T, A32C, A34T, T35C, A38T
On to B8, for which the binding result in the data set with TTHB099 [2] was “no binding”.

B9: TTHA0506/07 site (dsDNA)
DNA 1: B2 DNA 1 with A26T, T30C, G32A, A33G
DNA 2: B2 DNA 2 with T28C, C29T, A31G, T35A
For B9, in the data set with TTHB099 [1], the Kd worked out at 77.6 nM.

B10: TTHA0132/33 site (dsDNA)
DNA 1: B2 DNA 1 with T27A, T28G, T29G, T30G, C37A
DNA 2: B2 DNA 2 with G24T, A31C, A32C, A33C, A34T
As for B10, in the data set with TTHB099 [1], the Kd amounted to 221 nM.

B11: TTHA0201/02 site (dsDNA)
DNA 1: B2 DNA 1 with G24T, A26G, T29A, G32C, A33G, A34C, T35C
DNA 2: B2 DNA 2 with A26G, T27G, T28C, C29G, A32T, T35C, C37A
For B11, in the data set with TTHB099 [1], the Kd amounted to 780 nM.

B12: ST2_099 m6 (dsDNA)
DNA 1: B2 DNA 1 with T28A, T29C
DNA 2: B2 DNA 2 with A32G, A33T
Regarding B12, in the data set with TTHB099 [1], the Kd stood at 5.61 nM.

B13: TTHB088/89 site (dsDNA)
DNA 1: B1 DNA 1 with T23G, G28C, C30T, A31G, G33A, G38A
DNA 2: B1 DNA 2 with C23T, C28T, T30C, G31A, C33G, A38C
In the case of B13, in the data set with TTHB099 [1], the Kd stood at 3.35 nM.

B14: ST2_099 m8 (dsDNA)
DNA 1: B2 DNA 1 with T29C, T30A
DNA 2: B2 DNA 2 with A31T, A32G
Take B14: in the data set with TTHB099 [1], the Kd is 6.81 nM.

B15: ST2_099 m1 (dsDNA)
DNA 1: B2 DNA 1 with T23G, T29C
DNA 2: B2 DNA 2 with A32G, A38C
On to B15, for which, in the data set with TTHB099 [1], the Kd was 6.29 nM.

B16: TTHA1911/12 site (dsDNA)
DNA 1: B2 DNA 1 with T27C, T30G, A33C, A38C
DNA 2: B2 DNA 2 with T23G, T28G, A31C, A34G
As for B16, the Kd with TTHB099 [1] was 65.6 nM.

B17: ST2_099 m3 (dsDNA)
DNA 1: B2 DNA 1 with T25A, T29C
DNA 2: B2 DNA 2 with A32G, A36T
On to B17, for which the Kd with TTHB099 [1] came out at 13.8 nM.

B18: ST2_REPSAis control (dsDNA)
DNA 1: CTAGGAATTCGTGCAGAGGTGAATCGTCATAGAATTCGTTACCATCCCTCCAGAAGCTTGGAC
DNA 2: GTCCAAGCTTCTGGAGGGATGGTAACGAATTCTATGACGATTCACCTCTGCACGAATTCCTAG
Turning to B18, in the data set with TTHB099 [2], the binding result is on record as “no binding”.
